Reference: patent US8754031B2, “Use of prolactin receptor antagonists in combination with an agent that inactivates the HER2/neu signaling pathway” (Oncolix, Inc., priority 2004, dated 2014)

Columns and labels:
[1] = test system: human breast cancer cell lines MDA-MB-134, T-47D, BT-474 and MCF-7; assay: TUNEL assay, apoptosis by DNA fragmentation in breast cancer cell lines; format: cell-based
Description: The human breast cancer cell lines MDA-MB-134, T-47D, BT-474 and MCF-7 were obtained from ATCC. These breast cancer cell lines were chosen based on their PRLR levels. The cell line T-47D had the highest PRLR level followed by MDA-MB-134, BT-474, MCF-7 in decreasing order of PRLR levels (Peirce S and Chen W Y., 2001, J. Endocrinol. 171:R1-4).
T-47D cells obtained from ATCC were grown in RPMI 1640 (phenol red free), supplemented with 10% FBS (GIBCO BRL). BT-474 cells were grown in RPMI 1640 medium (phenol red free) supplemented with 10% FBS and ATCC recommended supplements. MCF-7 cells were grown in DMEM medium (phenol red free), supplemented with 10% FBS. The cells were grown at 37° C. in a humid atmosphere in the presence of 5% CO2. The MDA-MB-134 cells were grown in Leibovitz's L-15 medium supplemented with 20% FBS and grown in CO2 free atmosphere. The breast cancer cells were trypsinized (0.02% Trypsin—EDTA) and grown in their respective media (phenol red free) supplemented with 10% CSS (Charcoal stripped serum) for a week. Subsequently the cells were trypsinized again and plated onto an 8 chambered slide system (Lab Tek II) at a confluence of 60-70% per chamber. The next day treatments were performed on the breast cancer cells using their respective media (phenol red free), supplemented with 1% CSS. The MDA-MB-134 VI cells were grown in phenol red containing medium, but with the same serum conditions as the other breast cancer cells.
(§1) Terminal deoxynucleotidyl transferase mediated dUTP nick end labeling (TUNEL) assay. Nicks of the fragmented DNA are labeled at their 3-OH ends. The fluorescein-labeled dUTP is incorporated at the 3-OH ends by using the enzyme terminal deoxynucleotidyl transferase. After the assigned period of treatment the chambers were dismantled as per the manufacturer's instructions and the TUNEL assay (Apoptosis detection system, Fluorescein-Promega) was performed as per the manufacturer's instructions. The slide was examined under a FITC filter using an Olympus IX 70 microscope system.

T47D cells = assay: Cell proliferation assay (cell counting), comparison with estrogen and tamoxifen; format: cell-based, human
Description: Cell proliferation assays. hPRLA was tested for its ability to inhibit breast cancer cell proliferation in tissue culture. The human breast cancer cells were grown in corresponding culture media according to ATCC recommendations. Cells were maintained at 37° C. in a humidified atmosphere of 5% CO2 in air. The assay conditions were essentially as described by Ginsburg and Vonderharr (Cancer Res., 55:2591-2595 (1995)). For individual growth experiments, cells were plated in 12 well culture plates at a density of approximately 2×10^4/ml, 1 ml/well. Cells were then allowed to attach for one day (T-47D, MCF-7, HTB19, and HTB20 cells, except for HTB 123, which is a suspension cells), then the overlying media was removed and changed to serum-free conditions with media containing ITS (insulin-transferring-selenium-BSA-linoleic acid culture supplement; Collaborative Research Bedford, Mass.). Varying concentrations of hPRL alone or in combination with hPRLA were introduced. After an additional three days in culture, cells were harvested after brief trypsinization and counted in a cell counter.
For certain experiments, a mixed cell culture assay was used. In this assay, breast cancer cells were co-cultured with expressor cells which had been transfected with nucleic acid encoding PRL or a PRL variant and expressing those recombinant proteins. By varying the number of expressor cells, the amount of PRL or PRL variant present in the mixed cell culture was increased or decreased. A fixed number of breast cancer cells (T47D) were added to wells of a multi-well cell culture plate. In certain wells, which served as a control, no expresser cells were added. Then, increasing numbers of expresser cells (transfected L cells expressing either HPRL (L-PRL) or hPRLA (L-PRLA)) were added to breast cancer cell-containing wells to create mixed cultures. The same numbers of expressor cells were cultured in parallel (without T47D cells) to serve as controls. After culturing under standard conditions for a period of time, the number of cells present in the wells was counted, and the number of L cells in the corresponding control culture was subtracted. The resulting number could then be compared to the number of T47D cells in the T47D control culture to evaluate the effects of the recombinant product on breast cancer cell proliferation.

[2] = in vivo
[3] = test system: Stat5a/b phosphorylation in T-47D cells; assay: Inhibition of phosphorylation of Stat5a/b, Western blot; format: cell-based, human; settings: 48 hours, 10 μg, in the presence of hPRL 100 ng/ml (FIG. 6)
Description: FIG. 6. […] T-47D cells were cultured overnight at 60% confluency and were maintained in phenol red-free and serum-free RPMI-1640 for 72 hours before stimulation. […] Lane A is the control cells that are untreated. […] Activation of Stat5 was analyzed by WB with anti-phospho-specific antibodies in 50 μg protein extracts.

[4] = Preclinical safety in animals; format: in vivo; settings: mice and rabbits, even at high doses
From the text: Previously, the inventors developed a hPRLR antagonist, G129R. G129R is prolactin with a single amino acid substation; the glycine at position 129 of the native sequence is replaced with an arginine. G129R has anti-tumor effects in cultured human breast cancer cells and in nude mouse models.

[5] = test system: STAT5 phosphorylation in T-47D human breast cancer cells; assay: hPRL induction of tyrosine phosphorylation of STAT5 protein; format: cell-based
From the text: Assay of hPRL induction of tyrosine phosphorylation of STAT5 protein. […] Tyrosyl phosphorylation of STAT 5 is a receptor mediated event and is thought to be an important step in ligand-induced signal transduction (Wakao et al., EMBO J., 13:2182-2191 (1994); Kazansky et al., Mol. Endocrinol., 9:1598-1609 (1995); Waxman et al., J. Biol. Chem., 270:13262-13270 (1995)). This assay was used to evaluate the ability of hPRL and hPRLA to inhibit induction of STAT 5 phosphorylation by wild type PRL.
Briefly, human breast cancer cells were plated in 12-well plates. After pre-incubation in serum-free DMEM for 2-3 hours, the cells were exposed to various concentration of hPRL and hPRLA in serum-free DMEM. […]

prostate cancer cells = assay: TUNEL assay, apoptosis in prostate cancer cells; format: cell-based; settings: two prostate cancer cells, 250 ng, 24 hours
Description: as §1
The samples were in duplicate and each sample constituted about 2 million cells.

HER2 = HER2 phosphorylation, immunoprecipitation and Western blot (Example 11); format: cell-based, human; settings: multiple breast cancer cells
From the text: Human PRL signals via cell surface specific receptors that lead to JAK2/STAT/MAPK activation, which ultimately promotes cell proliferation. Phosphorylation of HER2 protein is a crucial step in the activation of its downstream signaling molecules such as Ras/MAPK cascade.
Immunoprecipitation experiments confirm the role of hPRL and G129R in regulation of phosphorylation of HER2 in multiple breast cancer cell lines. A panel of breast cancer cell lines with different levels of hPRLR and HER2 are treated with different doses of PRL (from ng/ml to ug/ml to establish a dose response curve) and terminated at the various time points (from 15 min to 24 hr to establish response time course). The optimal stimulatory dose and the response time courses are determined for each cell lines. Anti-HER2 antibody is used to immunoprecipitate HER2 in cell lysates and anti-phospho-HER2 antibody is used (Western blot) to identify the level of phosphorylated Her2 in response to the treatment.

T-47D cells = assay: Cell proliferation, ViaCount reagent and Guava PCA cytometer (viable cells); format: cell-based, human; settings: 24 hours of treatment, G129R 1 μg/ml, HERCEPTIN 20 μg/ml (FIG. 3)
Description: FIG. 3. […] The y-axis represents percent viable cells after each treatment.
This assay permits the determination of the number of total and viable cells in cultures. Cell proliferation was determined as a measure of the number of viable cells after 24 hours of treatment (FIG. 3).

## CC/C(=C(\c1ccc(O)cc1)c1ccc(OCCN(C)C)cc1)c1ccccc1 [4-OH-Tamoxifen, reference compound]
[1]; T-47D, MCF-7 or BT-474 cells, concentration as high as 1 μM
  apoptosis, DNA fragmentation: did not induce apoptosis

## estrogen [reference compound]
T47D cells
  proliferation of T47D cells relative to untreated control cultures: increased proliferation

## CC/C(=C(\c1ccccc1)c1ccc(OCCN(C)C)cc1)c1ccccc1 [tamoxifen, reference compound]
T47D cells
  proliferation of T47D cells relative to untreated control cultures: comparable inhibitory effect

B1: G129R: hPRLR antagonist: prolactin in which the glycine at position 129 of the native sequence is replaced with an arginine (protein)
chain: LPICPGGAARCQVTLRDLFDRAVVLSHYIHNLSSEMFSEFDKRYTHGRGFITKAINSCHTSSLATPEDKEQAQQMNQKDFLSLIVSILRSWNEPLYHLVTEVRGMQEAPEAILSKAVEIEEQTKRLLERMELIVSQVHPETKENEIYPVWSGLPSLQMADEESRLSAYYNLLHCLRRDSHKIDNYLKLLKCRIIHNNNC
[2]
  half-life: 1 to 2 h
[3]
  inhibition of Stat5a/b phosphorylation: inhibitory effect
T47D cells
  proliferation of T47D cells relative to untreated control cultures: comparable inhibitory effect
[4]
  safety in animals: safe
[1]; 250 ng, 24 hours treatment, all four PRLR positive breast cancer cell lines
  apoptosis, DNA fragmentation: induced apoptosis
[1]; after 2 hours of treatment, 50 ng/ml
  DNA fragmentation in breast cancer cells: apparent
[5]
  block of hPRL-induced phosphorylation of STAT5 proteins: able to block the signal transduction induced by hPRL
Prostate cancer cells
  apoptosis detected by TUNEL assay: underwent apoptosis
HER2
  phosphorylation of HER2: able to specifically block HER2 phosphorylation
T-47D cells
  decrease in proliferative ability / cell number compared to untreated control cells: 21.5%

B2: hPRL: human prolactin, wild type hormone, used as positive control and stimulus (protein)
chain: LPICPGGAARCQVTLRDLFDRAVVLSHYIHNLSSEMFSEFDKRYTHGRGFITKAINSCHTSSLATPEDKEQAQQMNQKDFLSLIVSILRSWNEPLYHLVTEVRGMQEAPEAILSKAVEIEEQTKRLLEGMELIVSQVHPETKENEIYPVWSGLPSLQMADEESRLSAYYNLLHCLRRDSHKIDNYLKLLKCRIIHNNNC
T47D cells
  proliferation of T47D cells relative to untreated control cultures: increased proliferation
HER2
  phosphorylation of HER2: able to phosphorylate HER2
